Laboratory results reported in patent publication US20240083971A1, “IMMUNE EFFECTOR CELL COVALENT IMMUNE RECRUITING (CIR) MOLECULES AND METHODS AND USES THEREOF” (McMaster University, priority 2022, published 2024).
Bridges are numbered along the chain shown (N, C = ends). Primed or numbered codes have the meaning given here. Where no end group is shown, it is not given here. [ ]: non-standard residue; d: D form. The star is where a group is joined. Biotin = O=C1N[C@H]2[C@H](CS[C@H]2CCCCC(=O)*)N1; Benzoyl(3-SO2F) = O=C(c1cccc(S(=O)(=O)F)c1)*; Lys(N3) = [N-]=[N+]=NCCCC[C@H](N)C(=O)O; azido = azide group (monovalent —N3); DBCO′ = not defined here; PEG4′ = not defined here

Experiments:
CD64 [1] = target: T1, CD64 (Homo sapiens, UniProt P12314); experiment: Koff (s^-1)
Description: (§1) Table printed on a drawing sheet, FIG. 8A
Head of the field: Koff (s^-1)
(§2) The patent's description of the figure: FIG. 8A-8B depicts results for the CP-33(N-term “Y” insertion mutant). […] (Note: the linker-biotin is attached to the azide; DBCO-Biotin not shown).
(§3) First copying reader's note: The name cp33-nt-tyr is printed with the structure in FIG. 8B on the same sheet; per the description, the BLI kinetics were measured with its linker-biotin conjugate binding to human CD64.
Target sequence in this assay (P12314 16-374 limits assumed): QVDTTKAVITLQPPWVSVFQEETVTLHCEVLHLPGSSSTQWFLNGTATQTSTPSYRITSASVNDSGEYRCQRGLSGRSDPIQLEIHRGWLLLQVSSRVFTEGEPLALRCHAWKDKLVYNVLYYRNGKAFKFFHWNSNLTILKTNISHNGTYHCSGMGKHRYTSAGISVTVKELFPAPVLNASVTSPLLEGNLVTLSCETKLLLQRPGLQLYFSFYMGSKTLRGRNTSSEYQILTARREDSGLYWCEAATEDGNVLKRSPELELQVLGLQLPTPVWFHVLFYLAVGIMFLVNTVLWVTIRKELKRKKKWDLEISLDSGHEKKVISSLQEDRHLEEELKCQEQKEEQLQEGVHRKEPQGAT

CD64 [2] = target: T1, CD64; experiment: Kon (M^-1 s^-1)
Description: as §1
Target sequence in this assay (P12314 16-374 limits assumed): as above
Head of the field: Kon (M^-1 s^-1)
as §2, §3

CD64 [3] = target: T1, CD64; experiment: fluorescent SDS-PAGE covalent labelling specificity of sulfonyl fluoride CIRs (CD64, CD16, BSA); assay type: binding; conditions: 1.6 μM CIR-A647, 800 nM protein, 7 hours, room temperature
Description: Dark bands show A647 fluorescence as measured using the Cy5 channel and represent covalent CIR binding. For each sample, 1.6 μM CIR clicked to A647 fluorescent dye was incubated with 800 nM of protein for 7 hours.
The specificity of the three sulfonyl fluoride CIR variations for labelling CD64 were investigated using a fluorescent SDS-PAGE assay similar to as described above (FIG. 16). 1.6 μM CIR clicked to A647 fluorescent dye was incubated with 800 nM of protein for 7 hours at room temperature in the dark. Three different proteins were assayed to test specificity: CD64, CD16, and BSA. The samples were then run on a 4-20% gradient acrylamide gel and fluorescence was measured using the Cy5 channel with an Amersham Typhoon biomolecular imager. Only covalently labelled CIR will remain bound to CD64 in SDS-PAGE giving rise to fluorescent bands.
Target sequence in this assay (P12314 16-374): as the sequence (P12314 16-374 limits assumed) above

CD64 on live U937 cells = target: T2, CD64 on live U937 cells (Homo sapiens, UniProt P12314); experiment: CIR-biotin labeling of CD64 on live U937 cells detected with streptavidin-PE; assay type: cell-based; conditions: 24 hours at 37° C. with IFNγ
T2 construct: endogenous in cells
T2 sequence (P12314 16-374): as the sequence (P12314 16-374 limits assumed) above
Description: CIR-biotin was incubated with U937 cells for 24 hours at 37° C. along with IFNγ. The cells were then washed and incubated with streptavidin-PE. The streptavidin binds tightly to the biotin on the CIR and the fluorescent PE signal was read. cP33-ct-aryl SuFEx (CT), cP33-int-aryl SuFEx (INT), cP33-nt-aryl SuFEx (NT), and a noncovalent analog were incubated at increasing concentrations.
The ability of the three sulfonyl fluoride CIR variants to label CD64 on the surface of live cells was assayed using CIRs clicked to a biotin handle. CIR-biotin was incubated with U937 cells for 24 hours at 37° C. along with IFNγ. Post reaction, the cells were washed and incubated with streptavidin-PE. The streptavidin binds tightly to the biotin on the CIR and the fluorescent PE signal was read using a BD LSRII flow cytometer (FIG. 24). 100X CIR not labelled with biotin was used as competitor control to assess specificity and covalency (FIG. 25).

[4] = LC-MS stability in aqueous conditions at room temperature; conditions: over 27 hours
Description: The stability of the three sulfonyl fluoride variants in aqueous conditions at room temperature were then assessed using LC-MS. LC-MS measurements were taken over 27 hours and peaks on the UV chromatogram were monitored for CIR degradation (FIG. 19-21).

CD64 [5] = target: T1, CD64; experiment: fluorescent SDS-PAGE covalent labelling kinetics of CD64; assay type: binding; conditions: 1.6 μM CIR, 800 nM CD64, one-phase association fit
Description: Dark bands show A647 fluorescence as measured using the Cy5 channel and represent covalent CIR binding. 1.6 μM of CIR was incubated with 800 nM CD64 for different amounts of time before being run on a SDS-PAGE gel.
The fluorescence intensity of each band in FIG. 17A-17C was measured and then compared to the fluorescence intensity of the band at 100% fraction labelled (where the fluorescence intensity reaches a plateau) to make a fraction bound vs time graph. The curve of the graph was fitted to a one-phase association curve in GraphPad Prism 8 to find the Kobs.
The kinetics of the labelling reaction was also investigated using fluorescent SDS-PAGE gels similar to as described above. 1.6 μM of CIR was incubated with 800 nM CD64 for different amounts of time before being run on a SDS-PAGE gel (FIG. 17). The fluorescence intensity of each band was then measured and then compared to the fluorescence intensity of the band at 100% fraction labelled (where the fluorescence intensity reaches a plateau) to make a fraction bound vs time graph (FIG. 18). The curve of the graph was fitted to a one-phase association curve to find the Kobs.
Target sequence in this assay (P12314 16-374): as the sequence (P12314 16-374 limits assumed) above

human CD64 (recombinant) [6] = target: T3, human CD64 (recombinant) (human, UniProt P12314 16-288); experiment: BLI; 12.5 nM CD64
T3 chain: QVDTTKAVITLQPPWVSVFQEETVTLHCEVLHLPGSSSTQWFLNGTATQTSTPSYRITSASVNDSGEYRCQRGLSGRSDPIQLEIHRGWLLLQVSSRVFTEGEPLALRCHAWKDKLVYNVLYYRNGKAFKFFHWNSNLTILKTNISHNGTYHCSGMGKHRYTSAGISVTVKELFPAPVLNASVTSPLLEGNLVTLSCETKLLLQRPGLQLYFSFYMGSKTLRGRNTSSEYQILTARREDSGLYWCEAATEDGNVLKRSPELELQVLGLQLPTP

human CD64 (recombinant) [7] = target: T3, human CD64 (recombinant); experiment: BLI; 25 nM CD64
human CD64 (recombinant) [8] = target: T3, human CD64 (recombinant); experiment: BLI; 100 nM CD64
human CD64 (recombinant) [9] = target: T3, human CD64 (recombinant); experiment: BLI; 50 nM CD64
human CD64 (recombinant) [10] = target: T3, human CD64 (recombinant); experiment: BLI; 100 nM CD64
human CD64 (recombinant) [11] = target: T3, human CD64 (recombinant); experiment: BLI; 50 nM CD64
human CD64 (recombinant) [12] = target: T3, human CD64 (recombinant); experiment: BLI; 200 nM CD64
human CD64 (recombinant) [13] = target: T3, human CD64 (recombinant); experiment: BLI
human CD64 (recombinant) [14] = target: T4, human CD64 (recombinant) (human, UniProt P12314 16-288, limits assumed); experiment: fluorescence SDS-PAGE covalent labelling kinetics, 1.6 µM CIR with 800 nM CD64, one-phase association fit
T4 construct: Recombinant protein in solution, or biotinylated on streptavidin biosensors; Some passages print only 'CD64'; also called huCD64; biotinylated huCD64

What does the source list for `CC(=O)N[C@@H](CCCCN=[N+]=[N-])C(=O)NCC(=O)N[C@@H](Cc1ccc(O)cc1)C(=O)N[C@H](C(=O)N[C@@H](CC(N)=O)C(=O)N[C@@H](CO)C(=O)N[C@H]1CSSC[C@@H](C(=O)NCC(=O)N[C@@H](CC(=O)O)C(=O)N[C@@H](CC(=O)O)C(N)=O)NC(=O)CNC(=O)[C@H](CC(C)C)NC(=O)[C@H](CC(C)C)NC(=O)[C@H](CC(N)=O)NC(=O)[C@@H]2CCCN2C(=O)[C@H](CC(C)C)NC(=O)[C@H](CC(C)C)NC(=O)[C@H](CC(C)C)NC1=O)C(C)C` [cp33-nt-tyr]?
koff (CD64 [1]): 0.00711 s⁻¹; kon (CD64 [2]): 332000 M⁻¹ s⁻¹

Which “covalent labelling preference for CD64 vs CD16 and BSA” value (CD64 [3]) does the source give for “cP33 ct-aryl SuFEx: cP33 peptide with the sulfonyl fluoride group at the C-terminus; SEQ ID NO: 12 ([Lys(N3)]VNSCLLLPNLLGCDGDK(Benzoyl(3-SO2F)); disulfide 5-14; not fully specified)” here?
Its value is “greater binding selectivity compared to the other variants”.

What about the “covalent labelling of CD64 on live cells (streptavidin-PE signal)” value (CD64 on live U937 cells) of the same molecule?
Its value is “specific and effective covalent labelling of CD64 on the surface of live cells”.

And the “stability in aqueous conditions (degradation peaks in UV trace)” value [4]?
The value was “some slight degradation peaks by 27 hours”.

And the Kobs (CD64 [5])?
Its Kobs is 6.7e-05 s⁻¹.

With “cP33 int-aryl SuFEx: cP33 peptide with the sulfonyl fluoride at an internal position replacing leucine; SEQ ID NO: 14 ([Lys(N3)]VNSCLLLPNK(Benzoyl(3-SO2F))LGCDGD; disulfide 5-14; not fully specified)” as the molecule, how does the “stability in aqueous conditions (degradation peaks in UV trace)” value [4] read?
Its value is “noticeable degradation peaks by 27 hours”.

And the Kobs (CD64 [5])?
Its Kobs is 9.2e-05 s⁻¹.

B1: CP-33(C-term "Y" insertion mutant)-linker-biotin conjugate (peptide)
peptide: XVNSCLLLPNLLGCGDDY
modifications: not fully specified; X1 is K, Ac-K(azido), or absent (azide clicked to DBCO-peg4-biotin); disulfide bond between C5 and C14; C-terminal amidation present or absent
For B1, which Kd (human CD64 (recombinant) [6]) is on record?
The Kd was 2 nM.

What about the Kd (human CD64 (recombinant) [7]) of the same molecule?
Its Kd is 2.6 nM.

What about the Kd (human CD64 (recombinant) [8]) of the same molecule?
Its Kd is 4 nM.

What about the Kd (human CD64 (recombinant) [9]) of the same molecule?
Its Kd is 3 nM.

B2: CP-33(N-term "Y" insertion mutant)-linker-biotin conjugate (peptide)
peptide: XGYVNSCLLLPNLLGCGDD
modifications: not fully specified; X1 is K, Ac-K(azido), or absent (azide clicked to DBCO-peg4-biotin); disulfide bond between C7 and C16; C-terminal amidation present or absent
What does the source list for B2?
Kd (human CD64 (recombinant) [10]): 18.2 nM; Kd (human CD64 (recombinant) [11]): 17.9 nM; Kd (human CD64 (recombinant) [12]): 20.8 nM

For {Biotin-PEG4′-DBCO′-azido}-VNSCLLLPNLLGCGDD (disulfide 4-13; not fully specified) [native CP-33-linker-biotin conjugate], which Kd (human CD64 (recombinant) [13]) is on record?
The Kd was 56 nM.

With [Lys(N3)]VNSCLLLPNK(Benzoyl(3-SO2F))LGCDGD (disulfide 5-14; also: X1 azide clicked to DBCO-A647 or DBCO-biotin) [cP33-int-aryl SuFEx] as the molecule, how does the Kobs (human CD64 (recombinant) [14]) read?
Its Kobs is 9.2e-05 s⁻¹.

With [Lys(N3)]VNSCLLLPNLLGCDGDK(Benzoyl(3-SO2F)) (disulfide 5-14; also: X1 azide clicked to DBCO-A647 or DBCO-biotin) [cP33-ct-aryl SuFEx] as the molecule, how does the Kobs (human CD64 (recombinant) [14]) read?
Its Kobs is 6.7e-05 s⁻¹.
